From publication PMC9817314, “Detection of human annexin A1 as the novel N-terminal tag for separation and purification handle” (Microbial Cell Factories, 2023)

T1: human annexin A1 (hanA1) tagged emerald green fluorescent protein (EmGFP) (human, UniProt P04083 3-346)
T1 construct: human annexin A1, amplified from a human brain cDNA library; EmGFP (reporter, detected by fluorescence) follows after the BamH I / Bgl II junction; also called hanA1-EmGFP; HanA1-EmGFP; source: E. coli BL21(DE3); in crude extract (clear lysate), or separated by CaCl2 precipitation and EDTA-Na2 resolubilisation; not shown: EmGFP, C-terminal, kept
T1 sequence (looked up): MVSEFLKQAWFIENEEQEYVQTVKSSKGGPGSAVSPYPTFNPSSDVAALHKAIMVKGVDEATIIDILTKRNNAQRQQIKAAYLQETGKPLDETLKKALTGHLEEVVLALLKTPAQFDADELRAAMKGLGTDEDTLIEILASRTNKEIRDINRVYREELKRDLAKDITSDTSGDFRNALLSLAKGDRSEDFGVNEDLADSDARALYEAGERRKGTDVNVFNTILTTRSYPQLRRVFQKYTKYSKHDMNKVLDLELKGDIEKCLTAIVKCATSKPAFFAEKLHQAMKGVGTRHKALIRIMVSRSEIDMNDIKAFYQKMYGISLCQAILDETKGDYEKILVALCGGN

B1: MBP-hS100A11 (human S100A11 fused to maltose binding protein) (natural protein, UniProt P31949 2-105, looked up)
chain: AKISSPTETERCIESLIAVFQKYAGKDGYNYTLSKTEFLSFMNTELAAFTKNQKDPGVLDRMMKKLDTNSDGQLDFSEFLNLIGGLAMACHDSFLKAVPSQKRT
notes: human S100A11, amplified from a human cDNA library; also called MBP-S100A11; immobilized S100A11; source: E. coli, soluble; immobilised on amylose resin and washed; not shown: MBP, N-terminal, kept

Columns and labels:
S100A11 (Homo sapiens) = S100A11 (Homo sapiens) (UniProt P31949); conditions: cited from earlier work
[1] = biological target: T1, human annexin A1 (hanA1) tagged emerald …; assay: pull-down; MBP-hS100A11 immobilised on amylose resin; hanA1-EmGFP in crude extract (clear lysate) in buffer B (20 mM Tris-HCl pH 8.0, 10% glycerol, 1 mM CaCl2), room temperature, 2 h; washed with buffer B containing 50 mM NaCl; eluted with buffer C (buffer A with 5 mM EDTA-Na2); SDS-PAGE; conditions: one partner purified

Molecule	Kd (S100A11 (Homo sapiens)) [µM]	binding result [1]
annexin I N-terminal peptide (from UniProt P04083)	5	–
B1	–	binds
